Laboratory results reported in PMC5789026, “mRNA Processing Factor CstF-50 and Ubiquitin Escort Factor p97 Are BRCA1/BARD1 Cofactors Involved in Chromatin Remodeling during the DNA Damage Response” (Molecular and Cellular Biology, 2017).

Tests used:
[1] = molecular target: T1, ΔBRCA1/BARD1-wt heterodimeric complex (truncated BRCA1 residues 1 to 304 and full-length BARD1) (UniProt P38398 1-304; Q99728 1-777); experiment: pull-down; ΔBRCA1/BARD1 (wt or Q564H) incubated with GST-CstF-50 and/or His-p97, immunoprecipitated with anti-BARD1 or preimmune sera; washes with buffer A (PBS, 0.01% Nonidet P-40, 0.04% BSA) including 300 mM NaCl; Western blot; conditions: both partners purified
T1 construct: truncated BRCA1 spanning the RING domain, residues 1 to 304; full-length BARD1, wild type; also called BRCA1/BARD1 heterodimer

His-Ub = molecular target: T2, His-Ub (UniProt P0CG48 1-76); experiment: pull-down; interaction assay with His-Ub and GST-CstF-50 as described previously (ref. 5); pellets and supernatants analysed by immunoblotting under denaturing PAGE; conditions: both partners purified
T2 construct: ubiquitin (Ub), the cut product of its precursor; also called ubiquitin; source: E. coli BL21, purified (Ni-agarose)

T1 sequence (P38398 1-304, stated change not applied, chain 1 of 2): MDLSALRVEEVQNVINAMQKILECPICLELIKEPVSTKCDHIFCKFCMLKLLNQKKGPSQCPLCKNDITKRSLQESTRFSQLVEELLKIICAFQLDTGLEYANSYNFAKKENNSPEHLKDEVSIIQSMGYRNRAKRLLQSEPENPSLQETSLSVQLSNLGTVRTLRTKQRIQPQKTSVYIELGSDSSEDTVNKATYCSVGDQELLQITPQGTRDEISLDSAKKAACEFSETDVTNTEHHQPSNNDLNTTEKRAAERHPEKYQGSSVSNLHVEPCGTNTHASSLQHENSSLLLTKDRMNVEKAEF
T1 sequence (Q99728 whole entry, stated change not applied, chain 2 of 2, the tested form may be a part): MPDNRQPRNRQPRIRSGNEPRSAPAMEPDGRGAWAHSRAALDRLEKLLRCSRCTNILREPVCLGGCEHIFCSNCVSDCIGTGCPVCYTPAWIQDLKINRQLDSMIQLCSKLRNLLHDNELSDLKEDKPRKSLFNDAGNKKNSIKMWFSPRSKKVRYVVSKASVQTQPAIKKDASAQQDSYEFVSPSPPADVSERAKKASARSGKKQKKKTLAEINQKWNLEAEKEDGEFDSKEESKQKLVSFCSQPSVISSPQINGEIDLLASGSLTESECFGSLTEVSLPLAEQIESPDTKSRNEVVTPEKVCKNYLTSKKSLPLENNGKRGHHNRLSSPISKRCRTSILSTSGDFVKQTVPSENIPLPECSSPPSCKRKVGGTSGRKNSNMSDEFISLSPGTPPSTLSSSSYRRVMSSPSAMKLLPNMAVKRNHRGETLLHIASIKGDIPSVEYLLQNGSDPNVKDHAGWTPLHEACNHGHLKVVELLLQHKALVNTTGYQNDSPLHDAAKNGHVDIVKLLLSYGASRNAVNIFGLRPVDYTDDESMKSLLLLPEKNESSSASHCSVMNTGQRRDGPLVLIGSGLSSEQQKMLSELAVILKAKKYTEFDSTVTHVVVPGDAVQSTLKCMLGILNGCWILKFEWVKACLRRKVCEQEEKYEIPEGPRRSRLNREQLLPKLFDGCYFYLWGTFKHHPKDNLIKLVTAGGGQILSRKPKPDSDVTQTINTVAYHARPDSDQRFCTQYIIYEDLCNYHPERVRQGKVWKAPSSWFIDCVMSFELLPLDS

B1: GST-CstF-50 (natural protein, UniProt Q05048 1-431, looked up)
chain: MYRTKVGLKDRQQLYKLIISQLLYDGYISIANGLINEIKPQSVCAPSEQLLHLIKLGMENDDTAVQYAIGRSDTVAPGTGIDLEFDADVQTMSPEASEYETCYVTSHKGPCRVATYSRDGQLIATGSADASIKILDTERMLAKSAMPIEVMMNETAQQNMENHPVIRTLYDHVDEVTCLAFHPTEQILASGSRDYTLKLFDYSKPSAKRAFKYIQEAEMLRSISFHPSGDFILVGTQHPTLRLYDINTFQCFVSCNPQDQHTDAICSVNYNSSANMYVTGSKDGCIKLWDGVSNRCITTFEKAHDGAEVCSAIFSKNSKYILSSGKDSVAKLWEISTGRTLVRYTGAGLSGRQVHRTQAVFNHTEDYVLLPDERTISLCCWDSRTAERRNLLSLGHNNIVRCIVHSPTNPGFMTCSDDFRARFWYRRSTTD
notes: CstF-50 (cleavage stimulation factor 50), recombinant; also called glutathione S-transferase (GST)-CstF-50; source: E. coli BL21, purified (glutathione-agarose)
binding result [1]: binds
binding result (His-Ub): binds
